The source of these data is article PMC7468311 (Acta Pharmacologica Sinica, 2020).

The target of one test is thrombin (Homo sapiens, UniProt P00734). Briefly: Bio-layer interferometry. The format is binding. A general note: Biolayer interferometry detects binding as a change in optical thickness at a sensor tip.
A further test deals with DTIP D24A mutant. Briefly: BLI.
In a further test the target is DTIP C6A-C14A mutant. Briefly: BLI.
A further test deals with DTIP E35A mutant. As to the kind of experiment: BLI.
Test [1] concerns the target direct thrombin inhibitor peptide (DTIP). As to the kind of experiment: BLI.
The target of a further test is DTIP Y3A mutant. As to the kind of experiment: BLI.
In test [2] the test system is rat plasma. Briefly: Plasma clotting measurement in vitro, aPTT. The format is biochemical, Sprague Dawley (SD) rats. To be noted: at the same concentration.
Test [3] concerns rat plasma. As to the kind of experiment: Plasma clotting measurement in vitro, TT. The format is biochemical, Sprague Dawley (SD) rats. To be noted: at the same concentration.
Test [4] relates to rat plasma. As to the kind of experiment: Plasma clotting measurement in vitro, PT. The format is biochemical, Sprague Dawley (SD) rats. To be noted: at the same concentration.

Entries after “also recorded” stand apart in the source; their conditions may differ.

For enoxaparin sodium, on thrombin, the “Binding of thrombin in BLI (in words)” value was “no direct interaction; also recorded: No binding”.

As to thrombin (enzyme), the dissociation constant Kd (usually the constant that tells how readily two partners part at equilibrium) with DTIP D24A mutant was 194 nM; with DTIP C6A-C14A mutant it was 138 nM; with DTIP E35A mutant it was 188 nM; in [1], 164 nM; with DTIP Y3A mutant it was 162 nM.

As to bivalirudin, the “aPTT of DTIP compared with bivalirudin” value in the test on rat plasma [2] is “on the same order of magnitude”. The “TT of DTIP compared with bivalirudin” value in the test on rat plasma [3] is given as “on the same order of magnitude”. Besides, in the test on rat plasma [4], the “PT of DTIP compared with bivalirudin” value is “on the same order of magnitude”.
